Assay results taken from patent publication US20060121580A1 (CRUCELL HOLLAND B V, published 2006).
Changes are numbered by the printed parent chain.

B1: human monoclonal anti-SARS-CoV antibody 03-009 (antibody, V domains shown)
VH: EVQLVESGGGVVQPGRSLRLSCAASGFTFSDYPMNWVRQAPGKGLEWVSSISGSGGSTYYADSVKGRFTISRDNSKNTLYLQMNSLRAEDTAVYYCAKGLFMVTTYAFDYWGQGTLVTVSS
VL: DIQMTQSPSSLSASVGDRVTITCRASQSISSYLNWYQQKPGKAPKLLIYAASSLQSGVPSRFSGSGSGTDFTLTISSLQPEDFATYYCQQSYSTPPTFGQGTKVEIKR
B2: human monoclonal anti-SARS-CoV antibody 03-002 (antibody, V domains shown)
VH: EVQLVESGGGLVKPGGSLRLSCAASGFTFSGYSMSWVRQAPGKGLEWVGRTRNKANSYTTEYAASVKGRFTISRDDSKNSLYLQMNSLKTEDTAVYYCARYYSRSLKAFDYWGQGTLVTVSS
VL: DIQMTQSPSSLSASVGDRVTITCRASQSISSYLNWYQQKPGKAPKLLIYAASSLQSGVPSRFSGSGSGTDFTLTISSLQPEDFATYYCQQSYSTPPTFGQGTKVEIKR
B3: human monoclonal anti-SARS-CoV antibody 03-006 (antibody, V domains shown)
VH: EVQLVESGGGLVQPGGSLRLSCAASGFTFSGYPMHWVRQAPGKGLEWVAVISYDGSNKYYADSVKGRFTISRDNSKNTLYLQMNSLRAEDTAVYYCAKDGSPRTPSFDYWGQGTLVTVSS
VL: DIQMTQSPHSLSASVGDRVTITCRASQGISNYLAWYQQKPGKVPKLLIYAASTLQSGVPSRFSGSGSGTDFTLTISSLQPEDVGVYYCQQRFRTPVTFGQGTKLEIKR
B4: human monoclonal anti-SARS-CoV antibody 03-015 (antibody, V domains shown)
VH: EVQLVESGGGVVRPGGSLRLSCAASGFTFDDYGMSWVRQAPGKGLEWVSGINWNGGSTGYADSVKGRFTISRDNAKNSLYLQMNSLRAEDTAVYYCARGLSLRPWGQGTLVTVSS
VL: SSELTQDPAESVALGQTVRITCQGDSLRSYYASWYQQKPGQAPVLVIYGKNNRPSGIPDRFSGSSSGNTASLTITGAQAEDEADYYCNSRDSSGNHVVFGGGTKLTVLG
B5: human monoclonal anti-SARS-CoV antibody 03-013 (antibody, V domains shown)
VH: EVQLVESGGGLVQPGGSLRLSCAASGFTFSDHYMDWVRQAPGKGLEWVGRTRNKANSYTTEYAASVKGRFTISRDDSKNSLYLQMNSLKTEDTAVYYCAKGLTPLYFDYWGQGTLVTVSS
VL: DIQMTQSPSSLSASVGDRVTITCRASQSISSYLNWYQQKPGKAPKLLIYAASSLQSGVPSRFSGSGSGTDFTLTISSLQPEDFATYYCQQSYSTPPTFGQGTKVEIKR
B6: human monoclonal anti-SARS-CoV antibody 03-014 (antibody, V domains shown)
VH: B5 VH with K100R, L102I, T103S, L105F
VL: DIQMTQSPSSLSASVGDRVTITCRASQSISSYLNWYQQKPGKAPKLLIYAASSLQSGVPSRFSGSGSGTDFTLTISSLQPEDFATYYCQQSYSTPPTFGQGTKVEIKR
B7: human monoclonal anti-SARS-CoV antibody 03-001 (antibody, V domains shown)
VH: EVQLVESGGGLVKPGGSLRLSCAASGFTFSGYSMNWVRQAPGKGLEWVSSISGGSTYYADSRKGRFTISRDNSKNTLYLQMNNLRAEDTAVYYCARHRFRHVFDYWGQGTLVTVSS
VL: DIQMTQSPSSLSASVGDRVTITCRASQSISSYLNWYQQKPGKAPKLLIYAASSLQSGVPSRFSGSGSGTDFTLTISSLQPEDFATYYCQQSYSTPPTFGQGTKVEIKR

Biological target: S318-510 fragment (amino acids 318-510 of the S protein of SARS-CoV Frankfurt 1), myc-His tagged (SARS-CoV strain Frankfurt 1, UniProt P59594 318-510)
Assay: IgG ELISA on S318-510 fragment

Binder	binding result
B1	no binding
B2	no binding
B3	binds
B4	no binding
B5	binds
B6	binds
B7	no binding

Biological target: full length S protein of SARS-CoV expressed on HEK293T cells (SARS-CoV strain Frankfurt 1, UniProt P59594 14-1255)
Assay: flow cytometry, 10 µg/ml IgG on transfected HEK293T cells

Binder	binding result
B3	binds
B4	binds
B5	binds

Biological target: S565 fragment (amino acids 1-565 of the S protein of SARS-CoV), myc-His tagged (SARS-CoV strain Frankfurt 1, UniProt P59594 14-565)
Assay: IgG ELISA on captured S565

Binder	binding result
B3	binds
B4	no binding
B5	binds
B6	binds
